The supplement of paper PMC7877785
± gives the uncertainty stated by the source.

Experiment: self-splicing fitness, log relative to wild type (ln ratio); higher = more splicing; Tetrahymena group I intron in knt gene, E. coli kanamycin selection, DiMSum; sequences stand for … in CUCUCU…GGAGGGAAAAGUUAUCAGGCAUGCACCUGGUAGCUAGUCUUUAAACCAAUAGAUUGCAUCGGUUUAAAAGGCAAGACCGUCAAAUUGCGGGAAAGGGGUCAACAGCCGUUCAGUACCAAGUCUCAGGGGAAACUUUGAGAUGGCCUUGCAAAGGGUAUGGUAAUAAGCUGACGGACAUGGUCCUAACCACGCAGCCAAGUCCUAAGUCAACAGAUCUUCUGUUGAUAUGGAUGCAGUUCACAGACUAAAUGUCGGUCGGGGAAGAUGUAUUCUUCUCAUAAGAUAUAGUCGGACCUCUCCUUAAUGGGAGCUAGCGGAUGAAGUGAUGCAACACUGGAGCCGCUGGGAACUAAUUUGUAUGCGAAAGUAUAUUGAUUAGUUUUGGAGUACUCGUGGUCG
Summary of the method: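 Colonies from six replicate transformations of E. coli BL21(DE3) were pooled and amplicon-sequenced on an Illumina HiSeq 2500. The library placed an intron with all eight P1ex-region nucleotides randomised inside the knt kanamycin-resistance gene on pET-22b(+), and cells grew overnight at 37°C or 30°C on LB agar with or without 25 μg/mL kanamycin (plus 100 μg/mL carbenicillin, 50 μM IPTG, 0.2% rhamnose). Fitness is the DiMSum error-weighted combination of wild-type-normalised replicate fold changes, kanamycin versus none.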

Sequence	self-splicing fitness (ln) (30 °C)	self-splicing fitness (ln) (37 °C)
CCCGAGCAAUAUUACGCCUA	-1.85 ± 0.25	-2.94 ± 0.35
CCCGAGCAAUAUUACGCCUU	-2.99 ± 0.2	-1.56 ± 0.34
CCCGAGCAAUAUUACGCGUC	-5.24 ± 0.32	-2.91 ± 0.23
CCCGAGCAAUAUUACGCUAU	-4.39 ± 0.34	-2.49 ± 0.2
CCCGAGCAAUAUUACGCUCG	-3.62 ± 0.22	-2.92 ± 0.27
CCCGAGCAAUAUUACGGAUA	-3.04 ± 0.22	-2.89 ± 0.27
CCCGAGCAAUAUUACGGAUC	-3.92 ± 0.46	-2.06 ± 0.27
CCCGAGCAAUAUUACGGCCU	-2.93 ± 0.33	–
CCCGAGCAAUAUUACGGGCG	-3.03 ± 0.19	-2.47 ± 0.25
CCCGAGCAAUAUUACGGGCU	-3.98 ± 0.26	-2.65 ± 0.21
CCCGAGCAAUAUUACGGGGU	-2.92 ± 0.16	-2.93 ± 0.17
CCCGAGCAAUAUUACGGUAC	-4.04 ± 0.22	-2.85 ± 0.21
CCCGAGCAAUAUUACGGUGG	-3.06 ± 0.13	-3.2 ± 0.18
CCCGAGCAAUAUUACGUCCU	-3.97 ± 0.39	-2.75 ± 0.39
CCCGAGCAAUAUUACGUGCG	-4.04 ± 0.21	-2.82 ± 0.21
CCCGAGCAAUAUUACGUUCU	-3.61 ± 0.25	-2.1 ± 0.25
CCCUAGCAAUAUUACGAAAA	-2.83 ± 0.2	-3.22 ± 0.27
CCCUAGCAAUAUUACGAAAU	-2.88 ± 0.21	-2.59 ± 0.31
CCCUAGCAAUAUUACGAAGU	-4.34 ± 0.28	-2.89 ± 0.27
CCCUAGCAAUAUUACGACCG	-1.21 ± 0.2	-2.17 ± 0.34
CCCUAGCAAUAUUACGACGA	-3.12 ± 0.24	-2.61 ± 0.27
CCCUAGCAAUAUUACGAGGC	-4.41 ± 0.42	-4.06 ± 0.18
CCCUAGCAAUAUUACGAGUA	-3.32 ± 0.29	-2.72 ± 0.33
CCCUAGCAAUAUUACGAUUU	-3.35 ± 0.17	-1.91 ± 0.17
CCCUAGCAAUAUUACGCGAU	-3.74 ± 0.18	-2.77 ± 0.2

Sequence	self-splicing fitness (ln) (30 °C)	self-splicing fitness (ln) (37 °C)
CCCUAGCAAUAUUACGCGCU	–	-1.78 ± 0.47
CCCUAGCAAUAUUACGCUAU	-3.92 ± 0.43	–
CCCUAGCAAUAUUACGCUUU	-4.12 ± 0.22	-2.49 ± 0.18
CCCUAGCAAUAUUACGGGUG	-2.51 ± 0.11	-0.894 ± 0.089
CCCUAGCAAUAUUACGGUUA	-4.05 ± 0.35	-2.71 ± 0.21
CCCUAGCAAUAUUACGUACC	-1.72 ± 0.18	-1.05 ± 0.3
CCCUAGCAAUAUUACGUAUC	–	-3.37 ± 0.39
CCCUAGCAAUAUUACGUCAU	-2.27 ± 0.13	-3.11 ± 0.24
CCCUAGCAAUAUUACGUCCA	-2.95 ± 0.23	-2.83 ± 0.31
CCCUAGCAAUAUUACGUGGG	-3.48 ± 0.1	-2.54 ± 0.14
CCCUAGCAAUAUUACGUUCA	-3.05 ± 0.19	-2.7 ± 0.2
CCCUAGCAAUAUUACGUUCG	-3.63 ± 0.27	-2.64 ± 0.33
CCGAAGCAAUAUUACGAAAG	-1.21 ± 0.073	-0.965 ± 0.092
CCGAAGCAAUAUUACGAGAA	-2.48 ± 0.47	-1.17 ± 0.49
CCGAAGCAAUAUUACGAGCC	-3.7 ± 0.26	-2.8 ± 0.23
CCGAAGCAAUAUUACGAGGC	-4.67 ± 0.42	-3.39 ± 0.29
CCGAAGCAAUAUUACGAUCU	-3.36 ± 0.34	-2.85 ± 0.29
CCGAAGCAAUAUUACGCAUU	-3.01 ± 0.2	-3.77 ± 0.29
CCGAAGCAAUAUUACGCUGG	-2.83 ± 0.22	-3.49 ± 0.35
CCGAAGCAAUAUUACGGAAG	-3.86 ± 0.24	-1.31 ± 0.15
CCGAAGCAAUAUUACGGGAG	-2.67 ± 0.18	-2.46 ± 0.23
CCGAAGCAAUAUUACGGGCA	–	-2.82 ± 0.25
CCGAAGCAAUAUUACGGGUU	-4.22 ± 0.21	-2.64 ± 0.16
CCGAAGCAAUAUUACGUACG	-1.37 ± 0.13	-0.92 ± 0.13
